± gives the uncertainty stated by the source.
Experiment: self-splicing fitness, log relative to wild type (ln ratio); higher = more splicing; Tetrahymena group I intron in knt gene, E. coli kanamycin selection, DiMSum; sequences stand for … in CUCUCU…GGAGGGAAAAGUUAUCAGGCAUGCACCUGGUAGCUAGUCUUUAAACCAAUAGAUUGCAUCGGUUUAAAAGGCAAGACCGUCAAAUUGCGGGAAAGGGGUCAACAGCCGUUCAGUACCAAGUCUCAGGGGAAACUUUGAGAUGGCCUUGCAAAGGGUAUGGUAAUAAGCUGACGGACAUGGUCCUAACCACGCAGCCAAGUCCUAAGUCAACAGAUCUUCUGUUGAUAUGGAUGCAGUUCACAGACUAAAUGUCGGUCGGGGAAGAUGUAUUCUUCUCAUAAGAUAUAGUCGGACCUCUCCUUAAUGGGAGCUAGCGGAUGAAGUGAUGCAACACUGGAGCCGCUGGGAACUAAUUUGUAUGCGAAAGUAUAUUGAUUAGUUUUGGAGUACUCGUGGUCG
Outline: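 Colonies from six replicate transformations of E. coli BL21(DE3) were pooled and amplicon-sequenced on an Illumina HiSeq 2500. The library placed an intron with all eight P1ex-region nucleotides randomised inside the knt kanamycin-resistance gene on pET-22b(+), and cells grew overnight at 37°C or 30°C on LB agar with or without 25 μg/mL kanamycin (plus 100 μg/mL carbenicillin, 50 μM IPTG, 0.2% rhamnose). Fitness is the DiMSum error-weighted combination of wild-type-normalised replicate fold changes, kanamycin versus none.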

| Sequence | self-splicing fitness (ln) (30 °C) | self-splicing fitness (ln) (37 °C) |
| --- | --- | --- |
| GCCGAGCAAUAUUACGCGCA | -1.42 ± 0.19 | -0.221 ± 0.14 |
| AAAGAGCAAUAUUACGCUAC | – | -2.81 ± 0.32 |
| CACGAGCAAUAUUACGCUUC | -3.96 ± 0.24 | -3.25 ± 0.3 |
| GCCGAGCAAUAUUACGCGAU | -2.66 ± 0.2 | -3.09 ± 0.37 |
| GGAGAGCAAUAUUACGGCAG | -3.29 ± 0.38 | – |
| GUGCAGCAAUAUUACGUCAU | -2.23 ± 0.089 | -1.95 ± 0.1 |
| UGCGAGCAAUAUUACGAUAG | -3.32 ± 0.27 | -1.7 ± 0.38 |
| CAUAAGCAAUAUUACGGUAC | -2.89 ± 0.19 | -2.14 ± 0.29 |
| CUAUAGCAAUAUUACGGUAC | -3.68 ± 0.28 | -1.51 ± 0.25 |
| GUAGAGCAAUAUUACGCGGC | -3.37 ± 0.2 | -2.07 ± 0.18 |
| AAGUAGCAAUAUUACGUCUA | -0.618 ± 0.09 | 0.263 ± 0.1 |
| AGCAAGCAAUAUUACGCGAU | -3.51 ± 0.37 | -0.149 ± 0.18 |
| GUAAAGCAAUAUUACGCGCG | -0.817 ± 0.14 | -0.615 ± 0.24 |
| GCCGAGCAAUAUUACGCGGU | -3.47 ± 0.18 | -3.36 ± 0.42 |
| UAAUAGCAAUAUUACGGAUA | -1.97 ± 0.17 | -1.83 ± 0.2 |
| UACGAGCAAUAUUACGCAAG | -2.57 ± 0.15 | -2.03 ± 0.35 |
| UCUCAGCAAUAUUACGGUCG | -1.96 ± 0.15 | -0.825 ± 0.14 |
| CUGCAGCAAUAUUACGCCUA | – | -0.55 ± 0.23 |
| GUAUAGCAAUAUUACGCCCC | -1.21 ± 0.2 | -0.594 ± 0.29 |
| GAUUAGCAAUAUUACGACUC | -0.282 ± 0.13 | 0.2 ± 0.16 |
| AGCCAGCAAUAUUACGAUCC | -2.27 ± 0.15 | -1.02 ± 0.19 |

| Sequence | self-splicing fitness (ln) (30 °C) | self-splicing fitness (ln) (37 °C) |
| --- | --- | --- |
| CCAAAGCAAUAUUACGGCGA | -3.26 ± 0.21 | -3.01 ± 0.19 |
| GAAAAGCAAUAUUACGUUGC | -3.83 ± 0.15 | -2.67 ± 0.14 |
| CAGAAGCAAUAUUACGCACC | -3.18 ± 0.41 | -2.1 ± 0.46 |
| GGGCAGCAAUAUUACGAAAC | -0.715 ± 0.3 | -0.594 ± 0.28 |
| GGAGAGCAAUAUUACGGGUC | -1.54 ± 0.15 | -1.53 ± 0.2 |
| GGUGAGCAAUAUUACGCGCA | -0.814 ± 0.21 | -0.146 ± 0.21 |
| GCUGAGCAAUAUUACGGCUC | – | -1.71 ± 0.25 |
| UGCUAGCAAUAUUACGCAAA | – | -0.861 ± 0.16 |
| UAUUAGCAAUAUUACGUGAA | -2.17 ± 0.13 | -1.87 ± 0.15 |
| GUCUAGCAAUAUUACGAUGC | 0.169 ± 0.14 | -0.841 ± 0.13 |
| CUAUAGCAAUAUUACGUGGC | -2.86 ± 0.24 | -1.8 ± 0.28 |
| UGUCAGCAAUAUUACGACAU | -3.964 ± 0.028 | -2.58 ± 0.04 |
| AAAGAGCAAUAUUACGCGUU | -2.13 ± 0.14 | -1.32 ± 0.14 |
| AGUCAGCAAUAUUACGCGGU | -2.25 ± 0.15 | -1.45 ± 0.11 |
| AUGUAGCAAUAUUACGAUGC | -1.49 ± 0.11 | -0.827 ± 0.16 |
| GAAAAGCAAUAUUACGGUAA | -1.98 ± 0.12 | -1.18 ± 0.12 |
| GUCGAGCAAUAUUACGGCCU | -2.83 ± 0.34 | – |
| CCGGAGCAAUAUUACGCGUA | -3.18 ± 0.3 | -1.59 ± 0.2 |
| GUCGAGCAAUAUUACGCAAC | -1.92 ± 0.33 | -0.123 ± 0.22 |
| CAAGAGCAAUAUUACGCGCG | -1.47 ± 0.093 | -0.891 ± 0.13 |
| UUUAAGCAAUAUUACGGAUG | -1.56 ± 0.1 | -0.852 ± 0.13 |

| Sequence | self-splicing fitness (ln) (30 °C) | self-splicing fitness (ln) (37 °C) |
| --- | --- | --- |
| GGGUAGCAAUAUUACGAUCA | -0.0146 ± 0.13 | 0.0752 ± 0.16 |
| CAAUAGCAAUAUUACGUUGU | -3.27 ± 0.14 | -2.12 ± 0.17 |
| AGCUAGCAAUAUUACGUCAU | -2.65 ± 0.1 | -1.54 ± 0.1 |
| GGCGAGCAAUAUUACGGACC | – | -0.87 ± 0.4 |
| AUGUAGCAAUAUUACGUAAU | -1.21 ± 0.11 | -0.524 ± 0.12 |
| CCGCAGCAAUAUUACGUCCU | -3.12 ± 0.18 | -1.39 ± 0.17 |
| ACACAGCAAUAUUACGGAAA | -3.13 ± 0.26 | -2.5 ± 0.22 |
| CGGAAGCAAUAUUACGACCA | 0.623 ± 0.2 | -0.13 ± 0.27 |
| GCGCAGCAAUAUUACGGUAU | -0.825 ± 0.039 | -0.0516 ± 0.054 |
| CCGAAGCAAUAUUACGCCAG | -1.32 ± 0.11 | -0.531 ± 0.13 |
| AAACAGCAAUAUUACGUAUC | -3.98 ± 0.17 | -1.97 ± 0.12 |
| GGUUAGCAAUAUUACGGAUA | -1.23 ± 0.14 | 0.704 ± 0.17 |
| AUUCAGCAAUAUUACGUAAA | -0.737 ± 0.08 | -0.148 ± 0.12 |
| GUAAAGCAAUAUUACGGCUA | 0.4 ± 0.052 | 0.518 ± 0.075 |
| AAGCAGCAAUAUUACGUCCG | -2.15 ± 0.12 | -1.13 ± 0.11 |
| UACCAGCAAUAUUACGUCAU | -2.21 ± 0.085 | -1.52 ± 0.088 |
| AACAAGCAAUAUUACGAGAA | -2.78 ± 0.32 | -2.03 ± 0.21 |
| GUUGAGCAAUAUUACGGCGA | -2.81 ± 0.23 | -2.44 ± 0.2 |
| CCGGAGCAAUAUUACGAAGG | -2.63 ± 0.14 | -2.28 ± 0.22 |
| AGCCAGCAAUAUUACGCUUU | -2.84 ± 0.089 | -0.852 ± 0.086 |
